Data set [1] concerns red blood cells (RBCs). Description: Hemolysis assay with ICG-pHLIP. It counts as cell-based, human. The note with it: 0.075 to 1.2 nmol in 150 μL, 37° C., 2 hours. Here is the method:
Single donor human whole blood was purchased from Innovative Research. Red blood cells (RBCs) were collected by centrifugation of whole blood at 2000 rpm for 10 minutes followed by washing three times with Dulbecco's PBS (DPBS) and re-suspended in DPBS at a concentration of 7.5% (v:v). Varying concentrations of ICG-pHLIP (0.075, 0.15, 0.3, 0.6, 1.2 nmol) in DPBS were added to RBCs to give a 5% RBC suspension (total volume of solution with RBC was 150 μL). The resultant mixtures were incubated at 37° C. for 2 hours and then centrifuged at 2000 rpm for 10 min. Hemolysis was assessed by the release of hemoglobin, which was monitored by measuring the absorbance at 450 nm of the supernatant hemoglobin. DPBS was used as negative controls. As positive controls, which result in 100% lysis of RBCs, we used i) water and ii) 10% of Triton X-100. The percentage of hemolysis was calculated as follows: […]
where, ODTest, ODNC, and ODPC are the optical density reading (absorbance) values of the test sample, negative control and positive control, respectively. The assay was performed in triplicate. The amount of RBC lysis was less than 2% in all samples. For the reference, in mice study 2.5 nmol of ICG pHLIP® is injected per mouse (a 20 g mouse has about 1.2 mL of blood), or 2.08 nmol/ml (the dose will be much lower in humans), while in hemolysis assay the maximum tested concentration was 8 nmol/ml.

Data set [2] in a line: in vivo. Conditions: female, BALB/cAcNHsd, mouse, iv, 2.5 nmol, 4 hours post injection, constant up to 16 hours, rough estimation, read-out: amount of ICG-pHLIP in tumors. Here is the method:
The fluorescence signals in organs and tissue were also measured in the tissue/organ homogenates and compared with the signals from the control tissue/organ homogenates (collected from control mice) mixed with known amounts of ICG-pHLIP. About 100 mg of tissue (tumor, liver or kidney) were homogenized with 2.5× (about 250 μL) volumes of DMSO using BioMasher II disposable homogenizers (DiagnoCine LLC). 30 μl of homogenate was placed into 384 well plate and imaged using an Odyssey IR scanner. Tumor, liver or kidney homogenates of control mice, mixed with known concentrations of ICG-pHLIP were used to establish the calibration curve. First, note that the fluorescence signals obtained on the control tumor, liver and kidney mixed with the known amounts of ICG-pHLIP were the same. Second, the course of signal changes in tumor, liver and kidney (data not shown) was in excellent correlation with the course of the kinetics presented on FIGS. 18A-F. It is rather difficult to establish precisely the amount of ICG-pHLIP in the tissue and organ samples; however, rough estimations can be made using the calibration curve. […] At 26 hours, when the blood is cleared and the fluorescence signal in all organs is minimal, the contrast between tumor and surrounding tissue is very significant.

The test system of data set [3] is Human mammary epithelial cells (HMEpC). Kind of data set: Cytotoxicity of ICG-pHLIP. The format is cell-based. Conditions: 0.125 to 16 μM, 48 and 72 hours. The protocol:
Human mammary epithelial cells (HMEpC) were acquired from Cell Applications Inc, and authenticated, and stored according to supplier's instructions. Cells were cultured in mammary epithelial cell growth medium provided by Cell Applications Inc. HMEpC cells were loaded in the wells of 96-well plates (˜6,000 cells per well) and incubated overnight. The increasing amounts of ICG-pHLIP dissolved in cell growth medium were added to cells to have the following final concentration of ICG-pHLIP with cells: 0.125, 0.25, 0.5, 1, 2, 4, 8 and 16 μM. After 48 and 72 hours of incubation, a colorimetric reagent (CellTiter 96 AQueous One Solution Assay, Promega) was added for 1 hour followed by measuring absorbance at 490 nm to assess cell viability. All samples were prepared in triplicate and each experiment was repeated several times.

Structures are written as SMILES. Residues, ends and D or L forms follow the SMILES beside them. *: point of attachment. X1 = CC1(C)C(/C=C/C=C/C=C/C=C2/N(CCCCCC(=O)NCCN3C(=O)CC(*)C3=O)c3ccc4ccccc4c3C2(C)C)=[N+](CCCCS(=O)(=O)[O-])c2ccc3ccccc3c21

As to `CC(C)C[C@H](NC(=O)[C@H](Cc1ccc(O)cc1)NC(=O)[C@H](C)NC(=O)[C@H](CCCNC(=N)N)NC(=O)[C@H](Cc1c[nH]c2ccccc12)NC(=O)[C@@H]1CCCN1C(=O)[C@H](CC(N)=O)NC(=O)[C@H](CCC(N)=O)NC(=O)[C@H](CC(=O)O)NC(=O)[C@H](CC(=O)O)NC(=O)[C@H](CSC1CC(=O)N(CCNC(=O)CCCCCN2/C(=C/C=C/C=C/C=C/C3=[N+](CCCCS(=O)(=O)[O-])c4ccc5ccccc5c4C3(C)C)C(C)(C)c3c2ccc2ccccc32)C1=O)NC(=O)[C@H](C)N)C(=O)N[C@@H](CC(=O)O)C(=O)N[C@@H](CC(C)C)C(=O)N[C@@H](CC(C)C)C(=O)N[C@@H](Cc1ccccc1)C(=O)N1CCC[C@H]1C(=O)N[C@H](C(=O)N[C@@H](CC(=O)O)C(=O)N[C@H](C(=O)N[C@@H](CC(C)C)C(=O)N[C@@H](CC(C)C)C(=O)N[C@@H](CC(C)C)C(=O)N[C@@H](CC(=O)O)C(=O)N[C@@H](CC(C)C)C(=O)N[C@@H](CC(C)C)C(=O)N[C@@H](Cc1c[nH]c2ccccc12)C(=O)N[C@@H](C)C(=O)O)[C@@H](C)O)[C@@H](C)O` (stereo partly drawn) [ICG-pHLIP] (H-AC(X1)DDQNPWRAYLDLLFPTDTLLLDLLWA-OH), the RBC lysis entry in data set [1] is given as “less than 2%”. Also, the tissue uptake in data set [2] is 10 to 15 %ID/g. Also, in data set [3], the cytotoxic effect entry was “did not show any cytotoxic effect”.

Source of the values: patent US20180369425A1, “LINKED AND OTHER pH-TRIGGERED COMPOUNDS” (priority 2017, published 2018).
